According to article PMC5705802, “A hypermorphic antioxidant response element is associated with increased MS4A6A expression and Alzheimer's disease”:

Columns and labels:
FOS;JUN [1] = molecular target: T1, FOS;JUN (Homo sapiens?;Homo sapiens?, UniProt P01100;P05412 1-380;1-331, |); experiment: competition EMSA; unlabeled vs labeled N1; 20 mM HEPES (pH not stated), 4 mM MgCl2, 20 mM KCl, 5 mM DTT, 1 mM EDTA, 100 ug/ml BSA, 4% glycerol, poly(dI-dC), 30 min room temperature; native gel 1X TBE; details: protein: commercial;commercial; tags: ;; copies: 1;1; blunt
T1 sequence (P01100 whole entry, chain 1 of 2): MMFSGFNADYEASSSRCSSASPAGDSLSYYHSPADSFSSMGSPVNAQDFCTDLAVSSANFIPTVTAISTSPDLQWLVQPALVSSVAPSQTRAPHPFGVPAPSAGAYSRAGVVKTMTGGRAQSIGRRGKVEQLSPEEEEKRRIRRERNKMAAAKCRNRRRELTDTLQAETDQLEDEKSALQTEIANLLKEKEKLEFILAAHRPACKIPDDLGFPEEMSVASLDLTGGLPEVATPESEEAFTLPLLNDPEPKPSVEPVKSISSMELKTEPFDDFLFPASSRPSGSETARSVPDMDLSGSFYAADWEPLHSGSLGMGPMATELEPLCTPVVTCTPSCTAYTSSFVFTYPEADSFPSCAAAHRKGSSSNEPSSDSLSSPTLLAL
T1 sequence (P05412 whole entry, chain 2 of 2): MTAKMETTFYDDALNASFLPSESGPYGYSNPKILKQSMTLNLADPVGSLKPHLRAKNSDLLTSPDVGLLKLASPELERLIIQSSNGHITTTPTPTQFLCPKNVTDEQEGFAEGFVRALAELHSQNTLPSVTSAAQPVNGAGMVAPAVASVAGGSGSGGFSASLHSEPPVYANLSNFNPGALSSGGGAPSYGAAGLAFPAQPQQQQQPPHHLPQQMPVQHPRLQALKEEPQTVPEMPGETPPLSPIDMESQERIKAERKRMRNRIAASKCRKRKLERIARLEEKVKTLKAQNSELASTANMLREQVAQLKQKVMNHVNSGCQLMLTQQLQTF

NRF1;MAFG [2] = molecular target: T2, NRF1;MAFG (Homo sapiens;Homo sapiens?, UniProt Q14494;O15525 1-772;1-162, |); experiment: competition EMSA; unlabeled vs labeled N1; legend once says NRF2 for these lanes (apparent typo); 20 mM HEPES (pH not stated), 4 mM MgCl2, 20 mM KCl, 5 mM DTT, 1 mM EDTA, 100 ug/ml BSA, 4% glycerol, poly(dI-dC), 30 min room temperature; native gel 1X TBE; details: protein: ivt;commercial; tags: His (plasmid pPB-N-His-NRF1, abm PV028854);; copies: 1;1; blunt
NRF1;MAFG [3] = molecular target: T2, NRF1;MAFG; experiment: competition EMSA; unlabeled vs labeled N1; 20 mM HEPES (pH not stated), 4 mM MgCl2, 20 mM KCl, 5 mM DTT, 1 mM EDTA, 100 ug/ml BSA, 4% glycerol, poly(dI-dC), 30 min room temperature; native gel 1X TBE; details: protein: ivt;commercial; tags: His (plasmid pPB-N-His-NRF1, abm PV028854);; copies: 1;1; blunt
NRF2;MAFG [4] = molecular target: T3, NRF2;MAFG (Homo sapiens;Homo sapiens?, UniProt Q16236;O15525 1-605;1-162, |); experiment: competition EMSA; excess unlabeled vs labeled N1; 20 mM HEPES (pH not stated), 4 mM MgCl2, 20 mM KCl, 5 mM DTT, 1 mM EDTA, 100 ug/ml BSA, 4% glycerol, poly(dI-dC), 30 min room temperature; native gel 1X TBE; details: protein: recombinant;commercial; tags: His, Flag3 (plasmid pPROHEX-HC-Flag3-NRF2);; copies: 1;1; blunt
FOS;JUN [5] = molecular target: T1, FOS;JUN; experiment: EMSA; 75 nM each; unlabeled N1 also competes; 20 mM HEPES (pH not stated), 4 mM MgCl2, 20 mM KCl, 5 mM DTT, 1 mM EDTA, 100 ug/ml BSA, 4% glycerol, poly(dI-dC), 30 min room temperature; native gel 1X TBE; details: protein: commercial;commercial; tags: ;; copies: 1;1; label: IRDye-700 as probe; blunt
NRF2;MAFG [6] = molecular target: T3, NRF2;MAFG; experiment: EMSA; 75 nM NRF2, 37.5 nM MAFG; unlabeled N1 also competes; 20 mM HEPES (pH not stated), 4 mM MgCl2, 20 mM KCl, 5 mM DTT, 1 mM EDTA, 100 ug/ml BSA, 4% glycerol, poly(dI-dC), 30 min room temperature; native gel 1X TBE; details: protein: recombinant;commercial; tags: His, Flag3 (plasmid pPROHEX-HC-Flag3-NRF2);; copies: 1;1; label: IRDye-700 as probe; blunt
NRF1;MAFG [7] = molecular target: T2, NRF1;MAFG; experiment: EMSA; TNT NRF1 2 ul/20 ul, 37.5 nM MAFG; unlabeled N1 also competes; 20 mM HEPES (pH not stated), 4 mM MgCl2, 20 mM KCl, 5 mM DTT, 1 mM EDTA, 100 ug/ml BSA, 4% glycerol, poly(dI-dC), 30 min room temperature; native gel 1X TBE; details: protein: ivt;commercial; tags: His (plasmid pPB-N-His-NRF1, abm PV028854);; copies: 1;1; label: IRDye-700 as probe; blunt

Row | Binder | binding result (FOS;JUN [1]) | binding result (NRF1;MAFG [2]) | binding result (NRF1;MAFG [3]) | binding result (NRF2;MAFG [4]) | binding result (FOS;JUN [5]) | binding result (NRF2;MAFG [6]) | binding result (NRF1;MAFG [7])
1 | NQO1 ARE mutant (NQO1mut) (dsDNA) DNA 1: AATCCGCAGTCACAGACTCCTACGAGAATCTGAGCCTAG DNA 2: CTAGGCTCAGATTCTCGTAGGAGTCTGTGACTGCGGATT | no binding | no binding |  |  |  |  | 
2 | MS4A6A ARE rs667897A (dsDNA) DNA 1: CTGCGCTCCAAACCCGCTGTGTCATACCATACCGGATGT DNA 2: ACATCCGGTATGGTATGACACAGCGGGTTTGGAGCGCAG | binds |  | binds | binds |  |  | 
3 | MS4A6A rs667897G (dsDNA) DNA 1: CTGCGCTCCAAACCCGCTGTGTCGTACCATACCGGATGT DNA 2: ACATCCGGTATGGTACGACACAGCGGGTTTGGAGCGCAG | no binding |  |  | no binding |  |  | 
4 | NQO1 ARE WT (NQO1WT) (dsDNA) DNA 1: AATCCGCAGTCACAGTGACTCAGCAGAATCTGAGCCTAG DNA 2: CTAGGCTCAGATTCTGCTGAGTCACTGTGACTGCGGATT |  |  |  |  | binds | binds | binds
